Test results taken from PMC5506079, “Neodymium-140 DOTA-LM3: Evaluation of an In Vivo Generator for PET with a Non-Internalizing Vector” (Frontiers in Medicine, 2017).

What was measured:
[1] = system: NCI-H727 tumor bearing mice; experiment: Small animal PET/CT tissue quantification, pre-mortem (16 h) and post-mortem; assay type: in vivo, female NMRI nude mice; settings: for Tumor post-mortem PET signal: mean ± spread over tumors; for Tumor partial volume corrected PET signal (PVC-PET): post-mortem PET divided by S(V); for Kidney PM PET tissue signal / L. tumor PM PET tissue signal / Liver PM PET tissue signal / Lung PM PET tissue signal / Muscle PM PET tissue signal / Pancreas PM PET tissue signal / R. tumor PM PET tissue signal: post mortem scan after 16 h, 3.3–4.3 MBq i.v.
Experimental: (§1) NCI-H727 lung carcinoid cancer cells (ATCC CRL-5815, LGC Standards) were cultured in RPMI-1640 media supplemented with 10% fetal bovine serum and 1% penicillin-streptomycin (Invitrogen) at 37° C and 5% CO2. Cells in their exponential growth phase and at 80–90% confluence were harvested by trypsinization and resuspended in 1:1 media and matrigel (BD Biosciences) at 5 × 10^7 cells/mL. Subcutaneous tumors were established in female NMRI nude mice (Taconic, Denmark) by inoculation of 5 × 10^6 cells in 100 µL on each flank above the hind limbs in the subcutaneous space. All animal experiments were performed under a protocol approved by the National Animal Experiments Inspectorate of Denmark.
Longitudinal small animal PET/CT imaging (Inveon Multimodality PET/CT scanner, Siemens) was performed with NCI-H727 tumor bearing mice injected intravenously with 3.3–4.3 MBq ^140Nd-DOTA-LM3 (n = 8) or 2.7–3.1 MBq ^140Nd-chloride (n = 3) in 150 µL. Mice were anesthetized with sevoflurane (Abbott Laboratories) during injection and PET/CT imaging. PET data was acquired for 600 s in list mode at 1, 3, and 16 h after injection. The mice were sacrificed after the 16 h time-point and a PET acquisition was performed 2 h post-mortem. Images were reconstructed using a 3D maximum a posteriori algorithm with CT based attenuation correction. CT images were acquired with the following settings: 300 projections, 65 kV, 500 µA, and 400 ms exposure, and reconstructed with an isotropic voxel size of 105 µm. Image analysis was performed using the Inveon Software (Siemens). Region of interests (ROIs) were drawn manually over the tumor regions and other organs based on the CT images and the uptake of ^140Nd-DOTA-LM3 or ^140Nd-chloride quantified as % injected dose per gram tissue (%ID/g).
Throughout the text we have used a unit, %IS/g, to denote the “percent of injected annihilation signal per gram tissue”. This is in contrast to the common unit, %ID/g (percent of injected dose per gram), which is typically used to report relative radiotracer concentrations. We made the decision to change units for two reasons: first because the EC-delayed positron is not guaranteed to be emitted at the same location as the initial EC decay; and second, because the abnormally high energy of positrons emitted in the decay of ^140Pr leads to large partial volume effects which alter the relationship between the decay distribution and the annihilation distribution.
Using the partial volume correction factor S(V), as a function of ROI volume, the PET quantifications from the manuscript can be rescaled. The results are shown in table S1 compared to the ex vivo biodistribution data. […] A more complete approach to the partial volume correction may lead to better agreement for the PET and well-counter data.

[2] = system: NCI-H727 tumor bearing mice; experiment: Conventional ex vivo biodistribution (gamma counter); assay type: in vivo, female NMRI nude mice; settings: for Tumor ex-vivo well counter: 16 h after injection
Experimental: as §1
Conventional ex vivo biodistribution was performed after the post-mortem scan. Tumors and organs were resected, weighted and the radioactivity was counted in a gamma counter (Wizard^2, PerkinElmer).

[3] = HPLC verification of de-labeling of ^140Pr from DOTA-LM3; assay type: physicochemical; settings: reverse-phase C-18 radio-HPLC trace vs LSC of fractions
Experimental: Samples of ^140Nd-DOTA-LM3 were injected onto a reverse-phase C-18 (Luna 3uC18(2)(n) 100 A 100 × 2 mm 3 μm, Phenomenex) column at a flow rate of 0.5 mL/min starting from 0% acetonitrile in water, and reaching 100% over a 15 min gradient. Elution was monitored with a radio detector. The entire effluent was collected in 1 min intervals (500 µL each) and quantified 4 days after collection by liquid scintillation counting on a HIDEX 300 SL spectrometer.

## 1,4,7,10- tetraazacyclododecane, 1,4,7- tri acetic acid, 10- acetamide N - p-Cl-Phecyclo(d-Cys-Tyr-d-4-amino-Phe(carbamoyl)-Lys-Thr-Cys)d-Tyr-NH2 (disulfide) [^140Nd-DOTA-LM3, ^140Nd reacted with the somatostatin analogue DOTA-LM3, a non-internalizing vector; the printed name is that of unlabeled DOTA-LM3]
[1]; 2.5MBq/nmol
  Tumor post-mortem PET signal: 0.19 ±0.07 %IS/g
  Tumor partial volume corrected PET signal (PVC-PET): 1.5 ±0.4 %ID/g
[1]; 5MBq/nmol
  Tumor post-mortem PET signal: 0.40 ±0.15 %IS/g
  Tumor partial volume corrected PET signal (PVC-PET): 3.0 ±1.0 %ID/g
[1]; higher specific activity (5 MBq/nmol), pre- vs post-mortem PET at 16 h, n = 4, mean ± SD
  Fraction of in situ produced ^140Pr washed out of the pancreas before decay: 56 ± 7%
[1]; subject 1, 5 MBq/nmol
  Kidney PM PET tissue signal: 1.41 %IS/g
  L. tumor PM PET tissue signal: 0.38 %IS/g
  Liver PM PET tissue signal: 0.21 %IS/g
  Lung PM PET tissue signal: 0.06 %IS/g
  Muscle PM PET tissue signal: 0.08 %IS/g
  Pancreas PM PET tissue signal: 1.79 %IS/g
  R. tumor PM PET tissue signal: 0.29 %IS/g
[1]; subject 2, 5 MBq/nmol
  Kidney PM PET tissue signal: 1.26 %IS/g
  L. tumor PM PET tissue signal: 0.35 %IS/g
  Liver PM PET tissue signal: 0.17 %IS/g
  Lung PM PET tissue signal: 0.08 %IS/g
  Muscle PM PET tissue signal: 0.07 %IS/g
  Pancreas PM PET tissue signal: 2.12 %IS/g
  R. tumor PM PET tissue signal: 0.41 %IS/g
[1]; subject 3, 5 MBq/nmol
  Kidney PM PET tissue signal: 1.76 %IS/g
  L. tumor PM PET tissue signal: 0.68 %IS/g
  Liver PM PET tissue signal: 0.25 %IS/g
  Lung PM PET tissue signal: 0.08 %IS/g
  Muscle PM PET tissue signal: 0.06 %IS/g
  Pancreas PM PET tissue signal: 2.56 %IS/g
  R. tumor PM PET tissue signal: 0.44 %IS/g
[1]; subject 4, 5 MBq/nmol
  Kidney PM PET tissue signal: 1.15 %IS/g
  L. tumor PM PET tissue signal: 0.24 %IS/g
  Liver PM PET tissue signal: 0.12 %IS/g
  Lung PM PET tissue signal: 0.04 %IS/g
  Muscle PM PET tissue signal: 0.06 %IS/g
  Pancreas PM PET tissue signal: 2.26 %IS/g
  R. tumor PM PET tissue signal: 0.18 %IS/g
[1]; subject 5, 2.5 MBq/nmol
  Kidney PM PET tissue signal: 1.12 %IS/g
  L. tumor PM PET tissue signal: 0.29 %IS/g
  Liver PM PET tissue signal: 0.20 %IS/g
  Muscle PM PET tissue signal: 0.04 %IS/g
  Pancreas PM PET tissue signal: 0.76 %IS/g
  R. tumor PM PET tissue signal: 0.28 %IS/g
[1]; subject 6, 2.5 MBq/nmol
  Kidney PM PET tissue signal: 1.35 %IS/g
  L. tumor PM PET tissue signal: 0.17 %IS/g
  Liver PM PET tissue signal: 0.23 %IS/g
  Lung PM PET tissue signal: 0.08 %IS/g
  Muscle PM PET tissue signal: 0.03 %IS/g
  Pancreas PM PET tissue signal: 1.71 %IS/g
  R. tumor PM PET tissue signal: 0.07 %IS/g
[1]; subject 7, 2.5 MBq/nmol
  Kidney PM PET tissue signal: 0.97 %IS/g
  L. tumor PM PET tissue signal: 0.18 %IS/g
  Liver PM PET tissue signal: 0.17 %IS/g
  Lung PM PET tissue signal: 0.08 %IS/g
  Muscle PM PET tissue signal: 0.03 %IS/g
  Pancreas PM PET tissue signal: 0.88 %IS/g
  R. tumor PM PET tissue signal: 0.19 %IS/g
[1]; subject 8, 2.5 MBq/nmol
  Kidney PM PET tissue signal: 1.18 %IS/g
  L. tumor PM PET tissue signal: 0.18 %IS/g
  Liver PM PET tissue signal: 0.15 %IS/g
  Lung PM PET tissue signal: 0.04 %IS/g
  Muscle PM PET tissue signal: 0.03 %IS/g
  Pancreas PM PET tissue signal: 0.82 %IS/g
  R. tumor PM PET tissue signal: 0.18 %IS/g
[2]; 2.5MBq/nmol
  Tumor ex-vivo well counter: 3.7 ±1.3 %ID/g
[2]; 5MBq/nmol
  Tumor ex-vivo well counter: 6.3 ±2.3 %ID/g
[2]; 16 h after i.v. injection, gamma counter
  Liver tissue accumulation, ex vivo biodistribution: 3 %ID/g
[2]; 16 h after i.v. injection, high specific activity (5.0 MBq/nmol, 0.5 nmol injected), n = 4, gamma counter
  Pancreas tissue accumulation, ex vivo biodistribution: 13 % ID/g
[3]
  Efficiency of release of ^140Pr from DOTA-LM3 after ^140Nd decay: > 95%
